Variants at the floor of the assay were thinned out. Bounds are passed on as bounds.

B1: TPR 5TU (parent)
chain: GGAUCUUCUCGAUCUAACAAAAAAGACAAAUCUGCCACAAAGCUUGAGAGCAUCUUCGGAUGCAGAGGCGGCAGCCUUCGGUGGCGCGAUAGCGCCAACGUUCUCAACUAUGACACGCAAAACGCGUGCUCCGUUGAAUGGAGUUUAUCAUG

The variants in the series derive from B1. Nature of the series: polymerase ribozyme fitness, log enrichment relative to wild type (log ratio); higher = more active; in vitro selection for triplet polymerase activity. The procedure, abridged:
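In triplicate, a single round of in vitro selection was run on each mutant library, PCR-built and transcribed, covering one subunit of a heterodimeric triplet polymerase ribozyme. Frozen incubation at −7 °C followed annealing with a biotinylated primer, partner subunit and triplets, and extended constructs were then gel-excised, streptavidin-captured and taken through RT-PCR. Fitness is the logarithm of genotype enrichment over wild-type enrichment, from inverse-variance-weighted replicate averages of Illumina-sequenced inputs and outputs. […] only genotypes with ≥10 input reads and ≥1 read per output were kept.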
Regarding A23C G34U C43U A60G C132U, the “polymerase ribozyme fitness (log ratio)” value is -4.02.

On to A3G C51A, for which the “polymerase ribozyme fitness (log ratio)” value is -1.26.

In the case of A40G U90A, the “polymerase ribozyme fitness (log ratio)” value was not above -4.2.

Regarding C35A A47U C57U U101A C114G C123U, the “polymerase ribozyme fitness (log ratio)” value is not above -4.2.

For the variant A19U A26C C38U A89G A98U A107C, the “polymerase ribozyme fitness (log ratio)” value was not above -4.2.

For G25C A52C U53A C87U G92C A98G U104G C108G U135G, the “polymerase ribozyme fitness (log ratio)” value was not above -4.2.

With A28G G42C C43G U56C C85G G92A G124U A150U, the “polymerase ribozyme fitness (log ratio)” value was not above -4.2.

As for G65A C85U A137U U139A G140A G152A, the “polymerase ribozyme fitness (log ratio)” value is -3.3.

For U6C C57U G83U G84U A121U, the “polymerase ribozyme fitness (log ratio)” value is -3.18.

For C95U A119U, the “polymerase ribozyme fitness (log ratio)” value was -0.544.

Consider A37U A52C C116G, for which the “polymerase ribozyme fitness (log ratio)” value was -2.94.

For A3C C8G U9G G59A C87A G92C G117C G133U, the “polymerase ribozyme fitness (log ratio)” value is not above -4.2.

On to G58A C87A, for which the “polymerase ribozyme fitness (log ratio)” value is not above -4.2.

For C96U C125A, the “polymerase ribozyme fitness (log ratio)” value is -0.0844.

In the case of C10G C32A G58U G59U U130C, the “polymerase ribozyme fitness (log ratio)” value was not above -4.2.

U55A A64G G84A C93G A137G A142U: the “polymerase ribozyme fitness (log ratio)” value was not above -4.2.

Consider A89C G92U, for which the “polymerase ribozyme fitness (log ratio)” value was -1.92.

For the variant A40U C75U C95U A98U G140A, the “polymerase ribozyme fitness (log ratio)” value is -3.39.

With A3C U7C A47C U55A G59A A73U U82G U146C, the “polymerase ribozyme fitness (log ratio)” value is not above -4.2.

Consider A20U G81A A89G C93U C129U, for which the “polymerase ribozyme fitness (log ratio)” value is -3.56.

With A12G A37C C87U G92A A119U G136A, the “polymerase ribozyme fitness (log ratio)” value is -0.359.

As for A19G C32A A47C G59C C85U A106C G143C, the “polymerase ribozyme fitness (log ratio)” value is not above -4.2.

On to C116U U151C, for which the “polymerase ribozyme fitness (log ratio)” value was -4.04.

On to A3C G11A A19C C54U A122U U135A G143A, for which the “polymerase ribozyme fitness (log ratio)” value is -3.73.

In the case of A41C C57A C99G U104C G126C U144G, the “polymerase ribozyme fitness (log ratio)” value was -3.09.

Take G81A A120U G128A: the “polymerase ribozyme fitness (log ratio)” value was -3.29.

On to A28U A47C C63G G86C C129A, for which the “polymerase ribozyme fitness (log ratio)” value was not above -4.2.

On to A17G C85G, for which the “polymerase ribozyme fitness (log ratio)” value was -1.33.

Turning to C8A A30U C43G U144C, the “polymerase ribozyme fitness (log ratio)” value was not above -4.2.

With G83U C96U, the “polymerase ribozyme fitness (log ratio)” value was -0.875.

Regarding A37U U61A C85U U134A, the “polymerase ribozyme fitness (log ratio)” value is -3.78.

With A12G C27A C76A A147C U148A, the “polymerase ribozyme fitness (log ratio)” value is not above -4.2.

As to U56C C93U U101G C103U G136C, the “polymerase ribozyme fitness (log ratio)” value is -4.09.

For G48C G62C C108G A137U U146A, the “polymerase ribozyme fitness (log ratio)” value was not above -4.2.

On to C10A A21G A29G C51U A52G U78C C95A A122U U146G, for which the “polymerase ribozyme fitness (log ratio)” value was not above -4.2.

Turning to G59U G80A, the “polymerase ribozyme fitness (log ratio)” value is -0.046.

In the case of A21C C51U A106G, the “polymerase ribozyme fitness (log ratio)” value is -0.144.

On to U102G A142U, for which the “polymerase ribozyme fitness (log ratio)” value was -3.35.

C51A A91G: the “polymerase ribozyme fitness (log ratio)” value is -3.53.

C10A A17C A20C G34U G58C U90G: the “polymerase ribozyme fitness (log ratio)” value was not above -4.2.

Turning to C32A A37C C95U, the “polymerase ribozyme fitness (log ratio)” value was not above -4.2.

On to A24U A26C A29U A40U A52G G62U C85U, for which the “polymerase ribozyme fitness (log ratio)” value is not above -4.2.

Regarding A39U U101G, the “polymerase ribozyme fitness (log ratio)” value was -2.05.

As to G67A C76A, the “polymerase ribozyme fitness (log ratio)” value was -4.16.

For the variant G62C G141C, the “polymerase ribozyme fitness (log ratio)” value was -0.741.

In the case of G50A C79A, the “polymerase ribozyme fitness (log ratio)” value was not above -4.2.

As for A29U G84U U135A, the “polymerase ribozyme fitness (log ratio)” value was not above -4.2.

Consider A16G A52G C57U A73C C85U C96G, for which the “polymerase ribozyme fitness (log ratio)” value is not above -4.2.

C57A C79U C93U A98U A147U: the “polymerase ribozyme fitness (log ratio)” value is -3.03.

For A20U U33G G42U C63G G71A A113G, the “polymerase ribozyme fitness (log ratio)” value was not above -4.2.

As to A17C G141U, the “polymerase ribozyme fitness (log ratio)” value came to 1.61.

Regarding C35U U135A, the “polymerase ribozyme fitness (log ratio)” value is -0.972.

For the variant G48U A49C G68U G74A C76A G88U C116G, the “polymerase ribozyme fitness (log ratio)” value was not above -4.2.

Turning to G11C C63U G83A A115U U135A U146C G152U, the “polymerase ribozyme fitness (log ratio)” value is not above -4.2.

For C10G A89G C103U U134G G141A U151A, the “polymerase ribozyme fitness (log ratio)” value is not above -4.2.

In the case of A19U C36U G86C C93U G100A G126C, the “polymerase ribozyme fitness (log ratio)” value was not above -4.2.

Turning to A21C A26C C85U A89C G136A G141A, the “polymerase ribozyme fitness (log ratio)” value was -4.04.

Turning to G42A A47C C85G C96G C116A A147U, the “polymerase ribozyme fitness (log ratio)” value was not above -4.2.

For the variant A16G G86U, the “polymerase ribozyme fitness (log ratio)” value was -2.72.

Take A21U G48C G83A C118G U145A: the “polymerase ribozyme fitness (log ratio)” value was -2.76.

For A19U G42C G86U A110G C116A G117U, the “polymerase ribozyme fitness (log ratio)” value was not above -4.2.

For the variant U9C A12C A20G U53A A73U G92U C114A A121U G140A U151A, the “polymerase ribozyme fitness (log ratio)” value is not above -4.2.

As to C57G G124U U148G, the “polymerase ribozyme fitness (log ratio)” value is not above -4.2.

As to G50A C75U A91U A150C, the “polymerase ribozyme fitness (log ratio)” value was not above -4.2.

With A17U A21G C27G A28U C85A C87U C95G, the “polymerase ribozyme fitness (log ratio)” value was not above -4.2.

In the case of U56G A91G, the “polymerase ribozyme fitness (log ratio)” value was -3.24.

As to U55A C76G G100C U109A A120G, the “polymerase ribozyme fitness (log ratio)” value is not above -4.2.

In the case of C8U A17G A30U C95U G126A U148G, the “polymerase ribozyme fitness (log ratio)” value was not above -4.2.

Turning to C5U U82A C103G A113U A137C U148A, the “polymerase ribozyme fitness (log ratio)” value is not above -4.2.

C27G C105A C114A A119G: the “polymerase ribozyme fitness (log ratio)” value is not above -4.2.

Turning to A121C, the “polymerase ribozyme fitness (log ratio)” value amounted to 0.117.

On to A22C G92C U109C U148A, for which the “polymerase ribozyme fitness (log ratio)” value is -4.16.

For the variant G46A G83A, the “polymerase ribozyme fitness (log ratio)” value is -0.911.

Take U53G G83U G86A U104C: the “polymerase ribozyme fitness (log ratio)” value is not above -4.2.

For the variant A52C A66G C72A A97U C99A, the “polymerase ribozyme fitness (log ratio)” value is not above -4.2.

In the case of U15C C35U U56A A89C, the “polymerase ribozyme fitness (log ratio)” value stood at 0.662.

Consider U6G A37G U53A G80U U90C C149A, for which the “polymerase ribozyme fitness (log ratio)” value was not above -4.2.

As for C14G A37U G86U A89U A119U C132G, the “polymerase ribozyme fitness (log ratio)” value was not above -4.2.

Take A16U C54U: the “polymerase ribozyme fitness (log ratio)” value was -1.53.

Take C10G A29U G34U C38A C87G G88A A122U G136C: the “polymerase ribozyme fitness (log ratio)” value was not above -4.2.

On to C125A U134C U148A G152A, for which the “polymerase ribozyme fitness (log ratio)” value was -4.13.

Regarding A39C G50C G59C A97U C129A C149U, the “polymerase ribozyme fitness (log ratio)” value was not above -4.2.

For C57A U78C C95G C99G, the “polymerase ribozyme fitness (log ratio)” value was -3.07.

In the case of U13C G25C C76A A97U C103G C105G U139C, the “polymerase ribozyme fitness (log ratio)” value is not above -4.2.

Values taken from the RNAGym collection of RNA variant scans (doi:10.1073/pnas.2313332121).
